# Target: ACE2 on Vero E6 cells (monkey (endogenous in Vero E6))
# Test: flow cytometry on cells
substance,measurement,value
functional peptide KYPAY (K5),IC50,6.7 µM

# From PMC11242946, “Inhibition of ACE2–S Protein Interaction by a Short Functional Peptide with a Boomerang Structure” (Molecules, 2024)
